How the values were obtained:
[1] = biological target: Rco_(LS20)-His(6) (Bacillus subtilis (plasmid pLS20cat)); experiment: AUC; sedimentation equilibrium; 10 to 30 uM Rco_(LS20); same buffer as sedimentation velocity; 7,000 to 10,000 rpm; 280 nm; single species model (HeteroAnalysis)
[2] = biological target: Rco_(LS20)-His(6) (Bacillus subtilis (plasmid pLS20cat)); experiment: AUC; sedimentation velocity; 10 uM purified Rco_(LS20); 20 mM Tris-HCl, 250 mM NaCl, 10 mM MgCl2, 1 mM EDTA, 100 mM glycerol, pH 7.4; 43-48 krpm; 280 nm; c(s) analysis with SEDFIT

stoichiometry N [1]: 4 | stoichiometry N [2]: 4
Substance: Rco_(LS20)-His(6) (natural protein)

From PMC4207663
